# Experimental data published in the supplement of paper PMC10567573.
# B1: C2CD2L (parent)
# chain: LTLKVLRSSSCGDTELLGQATLPV
# Variants of: B1
# Assay: protein stability index of a GFP-peptide fusion (GPS, HEK-293T) (PSI 1-6); higher = more stable
# Settings: c terminus: a fixed tail appended
# 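Further: lentivirally expressed fusions sorted by FACS into six bins by GFP to DsRed ratio, PSI derived from sequencing read proportions per bin multiplied by bin number.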
row,Variant,protein stability index
1,LTLKVLRSSSCGDTSLLGQATLPV [E15S],3.58
2,LTLKVLRSSSCGDTDLLGQATLPV [E15D],1.41
3,LTLKVLRSSSCGDTEALGQATLPV [L16A],1.79
4,LTLKVLRSSSCGDTESLGQATLPV [L16S],1.72
5,LTLKVLRSSSCGDTECLGQATLPV [L16C],2.07
6,LTLKVLRSSSCGDTEQLGQATLPV [L16Q],1.78
7,LTLKVLRSSSCGDTEVLGQATLPV [L16V],4.08
8,LTLKVLRSSSCGDTEILGQATLPV [L16I],2.19
9,LTLKVLRSSSCGDTETLGQATLPV [L16T],2.01
10,LTLKVLRSSSCGDTEYLGQATLPV [L16Y],1.37
11,LTLKVLRSSSCGDTERLGQATLPV [L16R],1.8
12,LTLKVLRSSSCGDTEFLGQATLPV [L16F],2.34
13,LTLKVLRSSSCGDTEHLGQATLPV [L16H],1.43
14,LTLKVLRSSSCGDTEKLGQATLPV [L16K],1.9
15,LTLKVLRSSSCGDTEMLGQATLPV [L16M],1.86
16,LTLKVLRSSSCGDTEDLGQATLPV [L16D],2.69
17,LTLKVLRSSSCGDTEPLGQATLPV [L16P],1.97
18,LTLKVLRSSSCGDTEGLGQATLPV [L16G],1.97
19,LTLKVLRSSSCGDTENLGQATLPV [L16N],1.92
20,LTLKVLRSSSCGDTELSGQATLPV [L17S],1.28
21,LTLKVLRSSSCGDTELMGQATLPV [L17M],1.11
22,LTLKVLRSSSCGDTELNGQATLPV [L17N],3.12
23,LTLKVLRSSSCGDTELAGQATLPV [L17A],2.08
24,LTLKVLRSSSCGDTELDGQATLPV [L17D],2.89

row,Variant,protein stability index
1,LTLKVLRSSSCGDTELGGQATLPV [L17G],1.86
2,LTLKVLRSSSCGDTELVGQATLPV [L17V],2.44
3,LTLKVLRSSSCGDTELYGQATLPV [L17Y],1.57
4,LTLKVLRSSSCGDTELCGQATLPV [L17C],2.18
5,LTLKVLRSSSCGDTELFGQATLPV [L17F],2.92
6,LTLKVLRSSSCGDTELHGQATLPV [L17H],1.24
7,LTLKVLRSSSCGDTELPGQATLPV [L17P],2.15
8,LTLKVLRSSSCGDTELTGQATLPV [L17T],1.92
9,LTLKVLRSSSCGDTELKGQATLPV [L17K],2.05
10,LTLKVLRSSSCGDTELRGQATLPV [L17R],1.35
11,LTLKVLRSSSCGDTELEGQATLPV [L17E],2.7
12,LTLKVLRSSSCGDTELWGQATLPV [L17W],2.04
13,LTLKVLRSSSCGDTELQGQATLPV [L17Q],2.1
14,LTLKVLRSSSCGDTELIGQATLPV [L17I],2.4
15,LTLKVLRSSSCGDTELLGQDTLPV [A20D],1.45
16,LTLKVLRSSSCGDTELLGQRTLPV [A20R],1.44
17,LTLKVLRSSSCGDTELLGQMTLPV [A20M],2.92
18,LTLKVLRSSSCGDTELLGQNTLPV [A20N],2.49
19,LTLKVLRSSSCGDTELLGQWTLPV [A20W],3.17
20,LTLKVLRSSSCGDTELLGQITLPV [A20I],2.35
21,LTLKVLRSSSCGDTELLGQQTLPV [A20Q],2.09
22,LTLKVLRSSSCGDTELLGQKTLPV [A20K],3.04
23,LTLKVLRSSSCGDTELLGQHTLPV [A20H],1.23
24,LTLKVLRSSSCGDTELLGQPTLPV [A20P],1.96

row,Variant,protein stability index
1,LTLKVLRSSSCGDTELLGQETLPV [A20E],2.1
2,LTLKVLRSSSCGDTELLGQTTLPV [A20T],1.79
3,LTLKVLRSSSCGDTELLGQSTLPV [A20S],1.48
4,LTLKVLRSSSCGDTELLGQLTLPV [A20L],2.33
5,LTLKVLRSSSCGDTELLGQGTLPV [A20G],1.03
6,LTLKVLRSSSCGDTELLCQATLPV [G18C],2.07
7,LTLKVLRSSSCGDTELLRQATLPV [G18R],2.06
8,LTLKVLRSSSCGDTELLKQATLPV [G18K],1.71
9,LTLKVLRSSSCGDTELLVQATLPV [G18V],2.88
10,LTLKVLRSSSCGDTELLQQATLPV [G18Q],1.78
11,LTLKVLRSSSCGDTELLLQATLPV [G18L],3.01
12,LTLKVLRSSSCGDTELLDQATLPV [G18D],2.28
13,LTLKVLRSSSCGDTELLFQATLPV [G18F],2.89
14,LTLKVLRSSSCGDTELLTQATLPV [G18T],1.18
15,LTLKVLRSSSCGDTELLMQATLPV [G18M],2.32
16,LTLKVLRSSSCGDTELLYQATLPV [G18Y],1.77
17,LTLKVLRSSSCGDTELLEQATLPV [G18E],2.26
18,LTLKVLRSSSCGDTELLSQATLPV [G18S],1.97
19,LTLKVLRSSSCGDTELLHQATLPV [G18H],1.43
20,LTLKVLRSSSCGDTELLPQATLPV [G18P],2.11
21,LTLKVLRSSSCGDTELLNQATLPV [G18N],2.11
22,LTLKVLRSSSCGDTELLAQATLPV [G18A],1.97
23,LTLKVLRSSSCGDTELLGQADLPV [T21D],1.57
24,LTLKVLRSSSCGDTELLGQASLPV [T21S],2.06

row,Variant,protein stability index
1,LTLKVLRSSSCGDTELLGQAQLPV [T21Q],1.58
2,LTLKVLRSSSCGDTELLGQALLPV [T21L],2.39
3,LTLKVLRSSSCGDTELLGQARLPV [T21R],3.3
4,LTLKVLRSSSCGDTELLGQAKLPV [T21K],2.08
5,LTLKVLRSSSCGDTELLGQAFLPV [T21F],3.74
6,LTLKVLRSSSCGDTELLGQAPLPV [T21P],2.22
7,LTLKVLRSSSCGDTELLGQAELPV [T21E],1.58
8,LTLKVLRSSSCGDTELLGQAVLPV [T21V],2.34
9,LTLKVLRSSSCGDTELLGQAGLPV [T21G],2.94
10,LTLKVLRSSSCGDTELLGQANLPV [T21N],2.36
11,LTLKVLRSSSCGDTELLGQAALPV [T21A],1.09
12,LTLKVLRSSSCGDTELLGQAMLPV [T21M],2.27
13,LTLKVLRSSSCGDTELLGQAYLPV [T21Y],3.37
14,LTLKVLRSSSCGDTELLGQACLPV [T21C],1.68
15,LTLKVLRSSSCGDTELLGQAHLPV [T21H],2.21
16,LTLKVLRSSSCGWTELLGQATLPV [D13W],3.58
17,LTLKVLRSSSCGPTELLGQATLPV [D13P],2.02
18,LTLKVLRSSSCGYTELLGQATLPV [D13Y],2.16
19,LTLKVLRSSSCGQTELLGQATLPV [D13Q],2.24
20,LTLKVLRSSSCGRTELLGQATLPV [D13R],1.47
21,LTLKVLRSSSCGSTELLGQATLPV [D13S],2.38
22,LTLKVLRSSSCGTTELLGQATLPV [D13T],3.72
